Test results published in the nanobody polyreactivity screen of Harvey et al. (2022).

experiment: yeast display, Sf9 membrane polyspecificity reagent, FACS + sequencing; frameworks hold sequencing errors
Procedure, shortened: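 Nanobodies from a synthetic yeast display library (Saccharomyces cerevisiae BJ5465), induced 36–48 hours with galactose, were stained 1 hour at 4 °C with 10% biotinylated, detergent-solubilized Sf9 membrane reagent, enriched on streptavidin microbeads, then FACS-sorted. Anti-HA (expression) and streptavidin (reagent binding) fluorescence set low and high (top ~1%) gates. Polyreactivity labels come from the gate of origin. Genes were colony-PCR amplified, MiSeq 2 × 250 sequenced and filtered by CDR length.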

| Sequence | polyreactivity (PSR sort gate) |
| --- | --- |
| QVQLVESGGGLVQAGGSLRLSCAASGSIFGFYAMGWYRQAPGKERELVASITISGGSTYYADSVKGRFTISRDNAKNTVYLQMNSLKPEDTAVYYCAARRYWDYNYWGQGTQVTVSS | low polyreactivity |
| QVQLVESGGGLVQAGGSLRLSCAASGFTFYIYAMGWSRQAPGKERELVAAISSSGGSTYYADSVKGRFTISRDNAKNTVYLQMNSLNPEDTAVYYWNVVRYPVYRTRYYYWGQGTQVTVSS | high polyreactivity |
| QVQLVESGGGLVQAGGSLRLSCAASGFIFVHNAMGWYRQAPGKERELVATISRRGGSTYYADSVKGRFTISRDNAKNTVYLQMNILKPEDTAVYYCAARTYGYYLYDYWGQGTQVTVSS | high polyreactivity |
| QVQLVESGGGLVQAGGSLRLSCAASGFTFSWYAMGRYRQAPGKERELVAAISSAGNTNYADSVKGRFTISRDNAKNTVYLQMNSLKPEDTAVYYCAKRDYWGQGTQVTVSS | high polyreactivity |
| QVQLVESGGGLGHAGGSLRLSCAASGSIFFWYAMGWYRQAPGKERELVAAITQRTGSTYYADSVKGRFTISRDNAKNTVYLQMNSLKPEDTAVYYCAGKRWRRSFTGNYWGLGTQVTVSS | high polyreactivity |
| QVQLVESGGGLVQAGGSLRFSCAASGFTFVYYVMGWYRQAPGKERELVAAINAGGGSTYYADSVKGRFTISRDNAKNTVYLQMNSLKPEDTAVYYCNARVRLGRNWSSYYYWGQGTQVTVSS | high polyreactivity |
| QVQLVESGGGLVQAGGSLRLSCAASGITFTFNAMGWYRQAPGKERELVAAISSTTSTKYADSVKGRFTISRDNAKNTVYLQMNSLKPEDTAVYYCALTYLLRYYGYRDDEYDYWGQGTQVTVSS | low polyreactivity |
| QVHLVESVGGLVQAGGSLRLSCAASGRIIYTYAMGWYIQAPGKERELVAAISWSGGSTYYADSVKGRFTISRDNAKNTVYLQMNSLKPEDTAVYYCNAAYYGYENLSKRGYWGQGTQVTVSS | high polyreactivity |
| QVQLVESGGGLVQAGGSLRLSCAASGNIFSWYAMGWYRQAPGKERELVAAITSGGRTYYADSVKGRFTISRDNAKNTVYLQMNSLKPEDTAVYYCNALRRRQYHDDYWGQGTQVTVSS | high polyreactivity |
| EDELVESGGGIVQAGGSLRLSCAATGSIIVVNAMVWYRQAPRKERELVAAISRGGITNYADSVKGRFTISRDNAKNTVYLQMNSLKPEDTAVYYCNARGSRWVKPERDYWGQGTQVTVSS | low polyreactivity |
| QVQLVESGGGLVQAGGSLRLSCAASGSIFSKYAMGRYRPAPGKERELVAAISRRGGDTYYADSVKGRFTISRDNAKNTVYLQMNSLKPEDTAVYYCAAYQYYLYDYWGQGTQVTVSS | high polyreactivity |
| QVQLVESGGGLVQAGGRLRLSSAASGSTFGYYAMGWYRQAPGKERELVAAISAGGGSTYYADSVKGRFTISRDNAKNTVYLQMISLKPEDTAVYYCAARGPHIPVKTYDYWGQGTQVTVSS | high polyreactivity |
| QVQLVESGGGLVQAGGSLRLSCAASGSIFGRYVKGWYRQAPGKERELVATISSGGSTYYADSVKGRFTISRDNAKNTVYFQMISLKPEDTAVYYCAASYSRFVDWIGDPGYDYWGQGTQVTVSS | low polyreactivity |
| QVQLVESGGGLVQAGGSLRLSCAASGFIFVIYAMGWYRQAPGKERELVARISFRSGRTYYADSVKGRFTISRDNAKNTVYLQMNSLKPEDTAVYYCNAVLYGQYKYDYWGQGTQVTVSS | high polyreactivity |
| QVQHVESGGGLVQAGGSLRLSCAASGSIYISNAMGWYRQAPGKERELVAAITSSGGSTYDADSVKGRFTISRDNAKNTVSLQMNSLKPEDTAVYYCAARPGRNYYYWGQGTQVTVSS | high polyreactivity |
| QVQQQESGGGLVQAGGSLRLSCAASGTIFQLTVMGRYRQAPGKERELVASIDYGGNTNYADSVKGRFTISRDNAKKTVYLQKYIVKPEDTAVYYCAAYSDSWTTHPYWGQVTQVTVSS | low polyreactivity |
| QVQLVESGGGLVQAGGSLRLSCAASGITLVRYAMGWNRKAPGKEREFVASITSGASTNYADSVKGRFTISRYNAKNTVYLQMNSLKPDDTAVYYCAAGPPSGGWWGGWYEYWGQGTQVTVSS | high polyreactivity |
| QVQLQESGGGLVQAGGSLRLSCAASGSIFDGFNMGWYRQAPGKERECVAAISYGASTYYADSVKGRFTGSRDNAKNSVYLQMNSLKPEDTAVYYCAVYDELYHVLVYWGRGTQVTVSS | low polyreactivity |
| QVQLVESGGGLVQAGCSLRLSCASSGSIFGRYAMGWYRQAPGKERELVAAISRGGSTNYADSVKGRFTISRDNAKNTVYLQLNSLKPEDTAVYYCNRKPYYVSSTRYDYWGQGSQVTVSS | high polyreactivity |
| QVQLVESGGGLVQAGGSLRLICAASGIILFYAMGWYRQAPGKERELVAAISSGGGTSYADSVKGRFTLSRDNAKKTVYLQMNSLKPEDTAVYYCAKTDGFYRGDGYWGQGTQVNVSS | low polyreactivity |
| QVQLVESGGGLVQAGGSLRLSCAASGRISFRYAMGWSRQAPGKEWELVAAINRGGITNYADSVKGRFTISRDNAKNTVYFQMNSLKPEDTAVYYCAARYASPRYKSKMDYWGQGTQVTVSS | high polyreactivity |

| Sequence | polyreactivity (PSR sort gate) |
| --- | --- |
| QVQLVESGGGLVQAGGSLRLSCAASGSIFYGYAMGWYRQAPGKERELVAAIRYSDGSTYYADSVKGRFTISRDNAKNTVYLQMNSLKPEDTAVYYCAKKRRNYIGYYYWGQGTQVTVSS | high polyreactivity |
| QVQLVESGGGLVQAGGSLRLSCAASGSTYRVKAMGWYRQAPGKEREFVAAITRGGSTNYADSVKGRFTISRDNAMNTVYLQMNSLKPEDTAVYYCATAYRGRAWGYVYWGQGTQVTVSS | high polyreactivity |
| QVQLVESGGGLVQAGGSHRLSCAASGRIFGTYTMGWYRHAPGKERELVASIRFGGSTYYADSVKGRYTISRDNAKNTVYLQMNSLKPEDTAVYYCNRVYGYNRRYGYWGQGTQVTVSS | high polyreactivity |
| QVQLVESGGGLVQAGGSLRLSCAASGSIFEYYAMGWYRQAPGKERELVATITTRGGSTYYADSVKGRFTLSRDNAKNTVSLQMKCLKPEDTAVYYCNARAAYYGRGTLLRRNYWGQGTQVTVSS | high polyreactivity |
| QVQLVESGGGLVQAGGSLRLSCAASGSIFQQYAMGWYRQAPGKERELVAAISWGDGSTYYADSVKGRFTISRDNAKNTVYLQKNSLKPEDTAVYYCNAYASAPLWSLEDDYWGQGTQVTVSS | low polyreactivity |
| QVQLVESGGGLVQAGGSLRLSCAASGRIFYIYTMGWYRQAPGKEREFVAGINWNGGSTYYADSVKGRFTISRDNAKNTVYLQMISLKPEDSEVYYCNADQYWDRYYYWGQGTQVTVSS | low polyreactivity |
| QVQLVESGGGLVQAGGSLRLSCAASGSIFYVNAMGWYRQAPGKERELVAAISVRGGRTYYADSVKGRFTISRDNAKNTVYLQMNSLKPEDTAVYYCAAKSVYKFGDDYWGQGTQVTVSS | high polyreactivity |
| QVQLVESGGGLVQAGGSLRLRCAASGFIFVAYAMGWYIQAPGKERELVAAISWSGGSTYADSVKGRFTISRHNAKNTVYLQMNSLKPEDTAVYYCDARTSPIKTNNWYSQRYDSWGQGTQVTVSS | low polyreactivity |
| QVQLVESGGGLVQAGGSLRLSCAASGRIFKLYAMGWYRQAPGKERELVASITWGGGSTNYADSVKGRFTISRDNAKNTVYLQMNSLKPEDTAVYYCAAVYSKYAVFWEYDYWGQGTQVTVSS | low polyreactivity |
| QVQLVESGGGLVQAGGSLRLSWAASGLTFETYVMGWYRQAPGKERELVAAISSSGRTYYADSVKGRFTISRDNAKNTVYLQMNSLKPEDTAVYYCAARGREFGYWGQGTQVTVSS | high polyreactivity |
| QVQLVESGGGLVQAGGSLRLSCAASGITFNAYAMGLYRQAPGKERELVAAISRSGGSTYYADSVKGRFTISRDNANNTVYLQMNSLKPEDTAVYYCAVDYRTRGDYWGQGTQVTVSS | high polyreactivity |
| QVQLVESGGGLDQAGGSLRLSCAASGSIFGVNDMVWNRQAPGKERELVAAISGGGSTYYADSVKGRFTISRDNAKNTVYLQMNSLKPEDTAVYYCARRRTKSYTRKYDYWGQGTQVTVSS | low polyreactivity |
| QVQLVESGGGLVQAGGSLRLSCAASGRIFGYNAMGWYRQAPGKERELVAAIDYTGGSTYYADSVKGRFTISRDNAKNTVYLQMNSLKPEDTAVYYCAKDRTTPWEEDDYWGQGTQVTVSS | low polyreactivity |
| QVQLVESGGGLVQAGGSLRLSCAASGSIFTPYAMGWYRQAPGKEREVVATITWTGGSTYYADSVKGRFTISRDNAINTVYLQMNSLKPEDTAVYYCAADTYRSGRAYYYWGQGTQVTVSS | low polyreactivity |
| QVQLVESGGGLVQAGGSLRLSCAASGGTFLYYMGWYRQAPGKERELVAAITFSGGSTYYADSVKGRFTISRDNAKNTVYLQMNSLKPEDTAVYYCAAGWYDWPKYLLSVYTYYLYDSWGQGTQVTVSS | low polyreactivity |
| QVQLVESGGGLVQAGGSLRLSCAASGLTFTRYAMGWYIQAPGKEREMVAAISKNGGSTYYADSVKGRFTISRDNAKNTVYLQMNSLKPEDTAVYYCAARRSTSYPAGYDYRGQGTQVTVSS | high polyreactivity |
| QVQLVESGGGLVQAGGSLRLSCAASGFTFKSYAMGWYRQAPGKERELVAAISRGTSTKYADSVKGRFTISRDNAKNTVYLQMNSLKPEDTAVYYCAALFPTSDLRLRYYRYDYWGQGTQVTVSS | low polyreactivity |
| QVQLVESGGGLFQAGGSLRLSCAASGSTIWSYAMGWYRQAPGKERELVASITWSGGSTYADSVKGRFTISRDNAKNTVYFQMNRLKPEDTAVYYCARESTLTYYSDDFDYWGQGTQVTVSS | low polyreactivity |
| QVQLVDSGGGLVQAGGSLSLSCAASGSTYAYYAMGWYRQAPGKVRELVAGITWTGGSTYYADSVKGRFTISRDNAKNTVYLQMNSLKPEDTAVYYCAVTYPYGYEYDHWGQGTQVTVSS | low polyreactivity |
| QVQLVESGGGLVQAGGSLRLSCAASGRIFGKYAMGWYRQAPGKERELVARISFSGGTTYYADSVKGRFTISRDNAKNTVYLQMNSLKQEDTAVYYCNARRVWSQRWAYDSWGQGTQVTVSS | high polyreactivity |
